This test addresses T1, TGF-βRII-Fc (muTGFbRII-mFc) (mouse (from the printed name …, UniProt Q62312 24-166)).
T1 chain: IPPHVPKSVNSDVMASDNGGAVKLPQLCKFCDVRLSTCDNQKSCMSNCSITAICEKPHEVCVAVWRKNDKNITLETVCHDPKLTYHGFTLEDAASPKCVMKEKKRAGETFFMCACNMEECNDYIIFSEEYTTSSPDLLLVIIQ
Description: SPR. In general terms: SPR reads the build-up and loss of mass on a sensor chip optically.

What is called koff is the rate constant with which the complex falls apart. Read a low koff as slow dissociation.

B1: Transforming growth factor-β3 (TGF-β3) (ligand)
chain: ALDTNYCFRNLEENCCVRPLYIDFRQDLGWKWVHEPKGYYANFCSGPCPYLRSADTTHSTVLGLYNTLNPEASASPCCVPQDLEPLTILYYVGRTPKVEQLSNMVVKSCKCS
Turning to B1, the off-rate constant (koff) worked out at 0.0013 s⁻¹.
